From patent publication US20060189529A1 (AMBRX, published 2006) come the findings set out here.

In assay [1] the target is T1, full length rat GHR (L43R) on BAF3 cells (clone 2E2-2B12-F4) (rat) (UniProt P16310).
T1 sequence (looked up): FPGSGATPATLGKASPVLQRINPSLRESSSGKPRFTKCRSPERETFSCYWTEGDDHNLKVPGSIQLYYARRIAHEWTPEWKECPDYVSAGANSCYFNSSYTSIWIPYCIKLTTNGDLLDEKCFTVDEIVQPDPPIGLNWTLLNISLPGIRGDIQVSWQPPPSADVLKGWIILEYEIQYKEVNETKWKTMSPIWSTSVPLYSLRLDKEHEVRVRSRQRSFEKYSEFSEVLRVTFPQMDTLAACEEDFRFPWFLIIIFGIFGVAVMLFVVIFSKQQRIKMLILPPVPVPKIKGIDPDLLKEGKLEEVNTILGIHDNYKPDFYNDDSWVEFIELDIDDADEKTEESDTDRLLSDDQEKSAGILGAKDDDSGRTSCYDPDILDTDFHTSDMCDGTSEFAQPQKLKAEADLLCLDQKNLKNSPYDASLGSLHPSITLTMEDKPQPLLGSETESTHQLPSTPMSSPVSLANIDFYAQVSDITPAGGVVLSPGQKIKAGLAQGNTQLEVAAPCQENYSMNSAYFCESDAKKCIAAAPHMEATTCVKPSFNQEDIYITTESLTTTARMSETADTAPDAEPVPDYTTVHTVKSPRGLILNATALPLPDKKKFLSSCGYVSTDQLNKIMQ
Put plainly: cell-based or functional assay.

The target in assay [2] is human growth hormone receptor on IM-9 cells (human) (UniProt P10912). The experiment in a line: cell-based or functional assay.
For assay [3], the target named is T2, human growth hormone receptor on IM-9 cells (human, UniProt P10912 19-638).
T2 sequence (looked up): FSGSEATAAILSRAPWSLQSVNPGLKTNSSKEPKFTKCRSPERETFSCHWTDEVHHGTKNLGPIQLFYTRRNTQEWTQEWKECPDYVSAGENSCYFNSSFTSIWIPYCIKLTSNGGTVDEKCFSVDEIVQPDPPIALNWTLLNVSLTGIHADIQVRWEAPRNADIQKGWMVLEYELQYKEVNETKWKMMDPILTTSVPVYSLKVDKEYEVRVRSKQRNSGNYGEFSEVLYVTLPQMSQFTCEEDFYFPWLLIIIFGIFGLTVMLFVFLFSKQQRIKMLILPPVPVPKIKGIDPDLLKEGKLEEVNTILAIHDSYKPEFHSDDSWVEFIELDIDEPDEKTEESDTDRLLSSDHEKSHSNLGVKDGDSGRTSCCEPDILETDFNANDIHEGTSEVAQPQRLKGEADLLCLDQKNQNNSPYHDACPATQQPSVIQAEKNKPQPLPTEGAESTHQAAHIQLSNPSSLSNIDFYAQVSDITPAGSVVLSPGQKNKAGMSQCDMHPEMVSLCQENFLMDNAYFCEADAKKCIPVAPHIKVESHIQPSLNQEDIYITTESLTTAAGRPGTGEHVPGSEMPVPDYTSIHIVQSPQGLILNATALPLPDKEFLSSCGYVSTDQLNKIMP
Put plainly: cell-based or functional assay.

The target of assay [4] is T3, rat GHR ECD (L43R), soluble, C-terminal 6His (rat, UniProt P16310 47-256).
T3 construct: also called soluble GHR ECD; rat GHR (L43R) extra cellular domain; not shown: C-terminal 6His tag of pET20b
T3 sequence (looked up): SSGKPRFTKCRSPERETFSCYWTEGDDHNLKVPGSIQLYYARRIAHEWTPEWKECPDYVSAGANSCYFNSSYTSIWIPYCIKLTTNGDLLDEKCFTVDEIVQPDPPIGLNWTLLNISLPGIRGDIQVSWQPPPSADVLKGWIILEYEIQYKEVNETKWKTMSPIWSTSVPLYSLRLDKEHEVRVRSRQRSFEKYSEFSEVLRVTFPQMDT
The experiment in a line: Biacore SPR; rat GHR ECD (L43R) on CM5 chip, GH injected; bivalent analyte model.

In assay [1], “hGH G131pAF-30KPEG (from UniProt P01241 27-217) (ligand)” showed a Proliferation EC50 (BrdU, rat GHR (L43R) BAF3 cells) (nM as headed; WHO hGH expressed as unity) of 4.6. This molecule came in with a pSTAT5 EC50 (IM-9) (nM as headed; WHO hGH expressed as unity) in assay [2] of 23.8.
Turning to “hGH K145pAF-30KPEG (from UniProt P01241 27-217) (ligand)”, the Proliferation EC50 (BrdU, rat GHR (L43R) BAF3 cells) (nM as headed; WHO hGH expressed as unity) in assay [1] worked out at 5.3. The molecule further gave a pSTAT5 EC50 (IM-9) (nM as headed; WHO hGH expressed as unity) in assay [2] of 20.6.
As to “hGH R134pAF-20KPEG (from UniProt P01241 27-217) (ligand)”, the pSTAT5 EC50 (IM-9) (nM as headed; WHO hGH expressed as unity) in assay [2] is 5.3.
In turn, “hGH Y35pAF-40KPEG (from UniProt P01241 27-217) (ligand)” returned a Proliferation EC50 (BrdU, rat GHR (L43R) BAF3 cells) (nM as headed; WHO hGH expressed as unity) in assay [1] of 24. Besides, the pSTAT5 EC50 (IM-9) (nM as headed; WHO hGH expressed as unity) in assay [2] was 53.3.
On to “hGH Y143pAF-30KPEG (from UniProt P01241 27-217) (ligand)”, for which the Proliferation EC50 (BrdU, rat GHR (L43R) BAF3 cells) (nM as headed; WHO hGH expressed as unity) in assay [1] stood at 6.6. Further, the pSTAT5 EC50 (IM-9) (nM as headed; WHO hGH expressed as unity) in assay [2] came out at 12.3.

B1: rat GH WT (ligand, UniProt P01244 27-216, looked up)
chain: FPAMPLSSLFANAVLRAQHLHQLAADTYKEFERAYIPEGQRYSIQNAQAAFCFSETIPAPTGKEEAQQRTDMELLRFSLLLIQSWLGPVQFLSRIFTNSLMFGTSDRVYEKLKDLEEGIQALMQELEDGSPRIGQILKQTYDKFDANMRSDDALLKNYGLLSCFKKDLHKAETYLRVMKCRRFAESSCAF
notes: also called rat growth hormone
Take B1: the “EC50 (nM), STAT5 phosphorylation in IM-9 cells” value in assay [3] is above 200000 nM. In assay [4], this molecule registered a Kd of 250 nM, a koff of 0.0083 s⁻¹ and a kon of 33000 M⁻¹ s⁻¹.
